# From patent publication US20090325259A1, “USE OF ADHESION MOLECULES AS BOND STRESS-ENHANCED NANOSCALE BINDING SWITCHES” (priority 2002, published 2009)
# Numbering of substitutions follows the chain as printed. Names and notes keep the numbering of the source.
# B1: FimH-j96-Q32L:S124A: FimH-j96 with combined Q32L and S124A mutations in the loop regions near the linker chain (protein)
# chain: FACKTANGTAIPIGGGSANVYVNLAPAVNVGLNLVVDLSTQIFCHNDYPETITDYVTLQRGSAYGGVLSSFSGTVKYNGSSYPFPTTSETPRVVYNSRTDKPWPVALYLTPVSSAGGVAIKAGALIAVLILRQTNNYNSDDFQFVWNIYANNDVVVPTGGCDVSARDVTVTLPDYPGSVPIPLTVYCAKSQNLGYYLSGTTADAGNSIFTNTASFSPAQGVGVQLTRNGTIIPANNTVSLGAVGTSAVSLGLTANYARTGGQVTAGNVQSIIGVTFVYQ
# B2: FimH-j96-V156P: FimH-j96 with the V156P point mutation in the linker chain (protein)
# chain: B1 chain with L32Q, A124S, V156P
# B3: V156P: point mutation V156P engineered into the FimH-j96 and FimH-f18 variants (protein)
# chain: B1 chain with L32Q, A124S, V156P
# B4: FimH-f18-V156P: FimH-f18 with the V156P point mutation in the linker chain (protein)
# chain: B1 chain with L32Q, A124S, V156P
# B5: V155P: point mutation V155P engineered into the FimH-j96 and FimH-f18 variants (protein)
# chain: B1 chain with L32Q, A124S, V155P
# B6: V154P: point mutation V154P engineered into the FimH-j96 and FimH-f18 variants (protein)
# chain: B1 chain with L32Q, A124S, V154P
# Experiments:
# [1] = tested on: guinea pig red blood cells (RBCs); experiment: Parallel plate flow chamber, RBCs on carpet of FimH-expressing E. coli; format: cell-based; settings: low shear, 0.01 to 0.14 dynes/cm^2
# Description: Bacteria-coated dishes were prepared as follows: 35 mm tissue culture dishes were incubated with 20 μg/ml RNAse B in 0.02 M bicarbonate buffer for 1 hr at 37° C. and washed three times in PBS with 0.1% BSA (PBS-BSA). The dishes were then incubated with 200 μl PBS-BSA containing 108 colony-forming units of E. coli for 1 hr at 37° C. and washed three times. […] The dishes were then placed under a Glycotech parallel plate flow chamber with a size B gasket (2.5 cm×0.25 cm×250 μm) and sealed with vacuum. A Harvard model #975 pulse-free syringe pump was used to pump fluid through the chamber. […]
# RBC movement was recorded using phase contrast microscopy with a 20× objective, a CCD camera, and Metamorph video imaging software by Universal Imaging. Videos were recorded at 1 frame every 2 s for a total of 3 min at each shear rate. […] The average velocity for each cell was calculated from these positions over the 3 min at each shear. […] We only analyzed cells that were attached and in the field of view at the start of the 3 min time frame. The off-rate of RBCs was calculated from the X, the percent of original RBCs remaining bound at time t, using the formula k=1/t·ln(1/X), and using t=3 min. […]
# [2] = tested on: guinea pig red blood cells (RBCs); experiment: RBC rosette-formation assay (static agglutination); format: cell-based; settings: static rosette-formation assay
# Description: (§1) Assays of bacterial adhesion to Man1-BSA and bovine RNAseB immobilized in 96-well plates were carried out as described previously (Sokurenko et al., 1995). Briefly, Man1-BSA and bovine RNAseB were dissolved at 20 μg/ml in 0.02 M bicarbonate buffer, and 100 μl aliquots were incubated in microtiter wells for 1 hr at 37° C. The wells were then washed three times with PBS and quenched with 0.1% BSA in PBS. 3H-thymidine-labeled bacteria were added in 0.1% BSA in PBS and incubated for 40 min at 37° C. without shaking to achieve saturation, and the wells were then washed with PBS. The individual wells were subjected to scintillation counting. The density of bacteria used in all assays was 5×10^7 colony forming units per 100 μl. RBC rosette-formation assay was performed by mixing equal amounts of serially diluted bacterial suspensions (starting from OD540 nm=1.0) and a 1% suspension of RBC in U-bottom microtiter plate wells. On-slide agglutination assays were performed by mixing the suspension of RBC and bacteria on a slide surface followed by rocking at ˜3 s^−1.
# Two commonly used RBC agglutination assays were performed that utilize different shear conditions. […] If no agglutination occurs, RBCs fall into a pellet in the bottom of the well (FIG. 15A), while agglutination results in a rosette of RBCs crosslinked by bacteria. […]
# [3] = tested on: bovine RNAse B (trimannose); experiment: Bacterial adhesion to bovine RNAse B-coated microplate (trimannose), static; format: binding; settings: mutations in FimH-j96 and FimH-f18
# Description: as §1
Molecule,Adhesion of RBCs to bacterial carpet under low shear [1],RBC agglutination under static conditions (in words) [2],Trimannose binding function of point mutants (in words) [3]
B1,moved much more under low shear stress than those on FimH-j96,,
B2,,significantly better than the corresponding wild-types,
B3,,,entirely conserved
B4,dramatically stronger adhesion under low shear than did the FimH-f18 parent,significantly better than the corresponding wild-types,
B5,,,entirely conserved
B6,,,entirely conserved
